In US20210393800A1, “PREPARATION AND APPLICATION OF SUPRAMOLECULAR SELF-ASSEMBLED HYALURONIC ACID HYDROGEL” (PHI BioMed Inc., priority 2018, published 2021):

Experiment: Protein release experiment (EGF in supernatant by HPLC)
Assay type: physicochemical
Conditions: 20 ug/ml in HA-Ad/HA-CD hydrogel, 500 ul PBS; for amount of EGF released over time (rank order): supernatant by HPLC according to date
Procedure: Aldehyde groups were introduced to the hyaluronic acid-adamantane (HA-Ad) derivative and hyaluronic acid (HA) using […].
The HA-Ad derivative and HA, to which the aldehyde group had been introduced, were allowed to react with an EGF protein using sodium cyanoborohydride to induce an aldehyde-amine reaction, thereby preparing conjugates. Through the aldehyde-amine reaction, a HA-Ad-EGF conjugate and a HA-EGF conjugate were prepared.
Each of EGF, the prepared HA-Ad-EGF conjugate, and the prepared HA-EGF conjugate was added at a concentration of 20 ug/ml to a 5 wt % hyaluronic acid-adamantane (HA-Ad) derivative solution. 50 ul of a 5 wt % hyaluronic acid-cyclodextrin (HA-CD) derivative solution was added to 50 ul of each of the resulting solutions and then mixed to prepare a hydrogel.
The hydrogel was input into an E-tube and centrifuged to remove air bubbles inside the gel. 500 ul of PBS was added to each hydrogel.
The concentration of EGF included in a supernatant was analyzed by high-performance liquid chromatography (HPLC) according to date.

Row | Substance | protein release behaviour | amount of EGF released over time (rank order)
1 | HA-Ad-EGF: EGF protein bound to aldehyde-modified HA-Ad derivative through an aldehyde-amine reaction; carried in the hydrogel | release a constant concentration of protein most slowly for a long period of time | HA-Ad-EGF<HA-EGF<EGF
2 | EGF: EGF protein used by itself in preparation of the hydrogel | – | HA-Ad-EGF<HA-EGF<EGF
3 | HA-EGF: EGF protein bound to aldehyde-modified hyaluronic acid through an aldehyde-amine reaction; carried in the hydrogel | – | HA-Ad-EGF<HA-EGF<EGF
